From the supplement of paper PMC7877785 come the findings set out here.

± gives the uncertainty stated by the source.

The data set is described as follows: self-splicing fitness, log relative to wild type (ln ratio); higher = more splicing; Tetrahymena group I intron in knt gene, E. coli kanamycin selection, DiMSum; sequences stand for … in CUCUCU…GGAGGGAAAAGUUAUCAGGCAUGCACCUGGUAGCUAGUCUUUAAACCAAUAGAUUGCAUCGGUUUAAAAGGCAAGACCGUCAAAUUGCGGGAAAGGGGUCAACAGCCGUUCAGUACCAAGUCUCAGGGGAAACUUUGAGAUGGCCUUGCAAAGGGUAUGGUAAUAAGCUGACGGACAUGGUCCUAACCACGCAGCCAAGUCCUAAGUCAACAGAUCUUCUGUUGAUAUGGAUGCAGUUCACAGACUAAAUGUCGGUCGGGGAAGAUGUAUUCUUCUCAUAAGAUAUAGUCGGACCUCUCCUUAAUGGGAGCUAGCGGAUGAAGUGAUGCAACACUGGAGCCGCUGGGAACUAAUUUGUAUGCGAAAGUAUAUUGAUUAGUUUUGGAGUACUCGUGGUCG
In a few lines:
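The eight P1ex-region nucleotides of an intron in the knt kanamycin-resistance gene on pET-22b(+) were all randomised and the library put into E. coli BL21(DE3). Six replicate transformations were grown overnight at 37°C or 30°C on LB agar with or without 25 μg/mL kanamycin, together with 100 μg/mL carbenicillin, 50 μM IPTG and 0.2% rhamnose. Colonies were pooled and amplicon-sequenced on an Illumina HiSeq 2500. Fitness from DiMSum is the error-weighted combination of wild-type-normalised replicate fold changes, kanamycin over none.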

Consider UUGCAGCAAUAUUACGGCUC, for which the “self-splicing fitness (ln)” value is, setting by setting: (30 °C) -0.757 ± 0.094; (37 °C) -0.29 ± 0.14.

On to UUGCAGCAAUAUUACGGCUU, for which the “self-splicing fitness (ln)” value was determined as 0.193 ± 0.069 (30 °C) and 0.35 ± 0.095 (37 °C).

For the sequence UUGCAGCAAUAUUACGGGAG, the “self-splicing fitness (ln)” value (30 °C) is -1.53 ± 0.11 and the “self-splicing fitness (ln)” value (37 °C) was -1.58 ± 0.13.

Consider UUGCAGCAAUAUUACGUGAC, for which the “self-splicing fitness (ln)” value is -1.55 ± 0.11 (30 °C) and -0.799 ± 0.13 (37 °C).

In the case of UUGCAGCAAUAUUACGUGGC, the “self-splicing fitness (ln)” value (37 °C) was -2.93 ± 0.32.

For the sequence UUGCAGCAAUAUUACGUUAA, the “self-splicing fitness (ln)” value reads like this: (30 °C) -1.55 ± 0.1; (37 °C) -0.515 ± 0.089.

Regarding UUGGAGCAAUAUUACGAGCG, the “self-splicing fitness (ln)” value (30 °C) was -2.64 ± 0.3 and the “self-splicing fitness (ln)” value (37 °C) is -0.508 ± 0.32.

In the case of UUGGAGCAAUAUUACGAGUU, the “self-splicing fitness (ln)” value is -4.04 ± 0.26 (30 °C) and -3.45 ± 0.34 (37 °C).

With UUGGAGCAAUAUUACGAUAA, the “self-splicing fitness (ln)” value reads like this: (30 °C) -2.08 ± 0.26; (37 °C) 0.881 ± 0.28.

Regarding UUGGAGCAAUAUUACGAUUA, the “self-splicing fitness (ln)” value by setting is: (30 °C) -0.16 ± 0.41; (37 °C) -1.3 ± 0.39.

On to UUGGAGCAAUAUUACGAUUU, for which the “self-splicing fitness (ln)” value was -3.2 ± 0.21 (30 °C) and -2.86 ± 0.29 (37 °C).

Consider UUGGAGCAAUAUUACGCAAA, for which the “self-splicing fitness (ln)” value (30 °C) is -2.95 ± 0.44 and the “self-splicing fitness (ln)” value (37 °C) is -2.54 ± 0.41.

Take UUGGAGCAAUAUUACGCUUU: the “self-splicing fitness (ln)” value (30 °C) is -2.75 ± 0.23 and the “self-splicing fitness (ln)” value (37 °C) was -2.3 ± 0.5.

UUGGAGCAAUAUUACGGCGU: the “self-splicing fitness (ln)” value (37 °C) was -2.29 ± 0.35.

Turning to UUGGAGCAAUAUUACGGGAG, the “self-splicing fitness (ln)” value reads like this: (30 °C) -4.02 ± 0.39; (37 °C) -2.62 ± 0.31.

Consider UUGGAGCAAUAUUACGGGCA, for which, under “37 °C”, the “self-splicing fitness (ln)” value is -1.45 ± 0.35.

With UUGGAGCAAUAUUACGGGUC, the “self-splicing fitness (ln)” value (30 °C) is -3.74 ± 0.34.

For UUGGAGCAAUAUUACGUAAG, the “self-splicing fitness (ln)” value by setting is: (30 °C) -2.23 ± 0.26; (37 °C) -0.995 ± 0.24.

In the case of UUGGAGCAAUAUUACGUCUC, the “self-splicing fitness (ln)” value reads like this: (30 °C) -2.96 ± 0.33; (37 °C) -2.41 ± 0.33.

UUGGAGCAAUAUUACGUGAA: the “self-splicing fitness (ln)” value was -2.62 ± 0.21 (30 °C) and -1.27 ± 0.2 (37 °C).

For UUGGAGCAAUAUUACGUGCG, the “self-splicing fitness (ln)” value runs as follows: (30 °C) -1.73 ± 0.28; (37 °C) -0.739 ± 0.21.

For the sequence UUGGAGCAAUAUUACGUUCG, the “self-splicing fitness (ln)” value was -2.23 ± 0.16 (30 °C) and -0.989 ± 0.17 (37 °C).

As to UUGGAGCAAUAUUACGUUUC, the “self-splicing fitness (ln)” value is -3.77 ± 0.43 (30 °C) and -3.44 ± 0.42 (37 °C).

In the case of UUGUAGCAAUAUUACGACAA, the “self-splicing fitness (ln)” value reads like this: (30 °C) -0.0967 ± 0.15; (37 °C) -0.283 ± 0.15.

UUGUAGCAAUAUUACGACGC: the “self-splicing fitness (ln)” value (30 °C) is -2.8 ± 0.44 and the “self-splicing fitness (ln)” value (37 °C) was -0.663 ± 0.36.

In the case of UUGUAGCAAUAUUACGCACU, the “self-splicing fitness (ln)” value runs as follows: (30 °C) 0.662 ± 0.21; (37 °C) 0.253 ± 0.19.

In the case of UUGUAGCAAUAUUACGCGCA, the “self-splicing fitness (ln)” value (30 °C) was -0.824 ± 0.17 and the “self-splicing fitness (ln)” value (37 °C) is 0.43 ± 0.19.

Consider UUGUAGCAAUAUUACGCUGG, for which the “self-splicing fitness (ln)” value by setting is: (30 °C) -1.38 ± 0.15; (37 °C) -1.77 ± 0.23.

With UUGUAGCAAUAUUACGGUAG, the “self-splicing fitness (ln)” value by setting is: (30 °C) -0.909 ± 0.18; (37 °C) -0.181 ± 0.2.

With UUGUAGCAAUAUUACGUCGC, the “self-splicing fitness (ln)” value (30 °C) is -3.54 ± 0.46.

As for UUGUAGCAAUAUUACGUCUU, the “self-splicing fitness (ln)” value is, setting by setting: (30 °C) -0.945 ± 0.16; (37 °C) -0.491 ± 0.19.

Consider UUGUAGCAAUAUUACGUGCU, for which the “self-splicing fitness (ln)” value is, setting by setting: (30 °C) -3.17 ± 0.27; (37 °C) -1.54 ± 0.21.

Regarding UUGUAGCAAUAUUACGUGGC, for the setting “37 °C”, the “self-splicing fitness (ln)” value is -2.15 ± 0.47.

Consider UUUAAGCAAUAUUACGAAGC, for which the “self-splicing fitness (ln)” value is -1.88 ± 0.32 (30 °C) and -0.328 ± 0.42 (37 °C).

Regarding UUUAAGCAAUAUUACGAUGC, where the note is “30 °C”, the “self-splicing fitness (ln)” value was -1.41 ± 0.37.

Consider UUUAAGCAAUAUUACGCAAA, for which the “self-splicing fitness (ln)” value (30 °C) is -1.59 ± 0.38 and the “self-splicing fitness (ln)” value (37 °C) was -0.938 ± 0.28.

Regarding UUUAAGCAAUAUUACGCACU, the “self-splicing fitness (ln)” value by setting is: (30 °C) -0.382 ± 0.1; (37 °C) -0.128 ± 0.12.

On to UUUAAGCAAUAUUACGCCCA, for which the “self-splicing fitness (ln)” value is, setting by setting: (30 °C) 0.412 ± 0.32; (37 °C) 0.619 ± 0.37.

Regarding UUUAAGCAAUAUUACGCGGU, the “self-splicing fitness (ln)” value reads like this: (30 °C) -3.46 ± 0.26; (37 °C) -1.85 ± 0.23.

For the sequence UUUAAGCAAUAUUACGGAUG, the “self-splicing fitness (ln)” value is -1.56 ± 0.1 (30 °C) and -0.852 ± 0.13 (37 °C).

Turning to UUUAAGCAAUAUUACGGCCC, the “self-splicing fitness (ln)” value (30 °C) is 0.344 ± 0.32.
